One block for each binder: values may come before it.
Legend:
Spx wild-type = target: T1, Spx wild-type (Bacillus subtilis, UniProt O31602 1-131); assay: EMSA; 5 uM Spx alone; EMSA: 20 mM Tris-HCl pH 7.8, 50 mM NaCl, 5 mM MgCl2, 10% glycerol, 5 uM each protein unless stated, room temperature (10 min preincubation, 15 min with probe); conditions: protein: recombinant; tags: tag-free after self-cleavable intein/chitin purification; label: 32P-dA at 3' end of the S42 strand (Klenow fill-in); blunt after Klenow fill-in of S42 (35-mer)
T1 sequence: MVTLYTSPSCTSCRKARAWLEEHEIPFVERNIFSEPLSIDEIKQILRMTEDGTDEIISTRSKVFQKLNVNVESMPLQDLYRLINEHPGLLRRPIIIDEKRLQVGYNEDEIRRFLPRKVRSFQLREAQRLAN

[1] = target: T2, alphaCTD (C-terminal domain of RNA polymerase alpha subunit) (Bacillus subtilis, UniProt P20429 225-314); assay: EMSA; 5 uM alphaCTD; EMSA: 20 mM Tris-HCl pH 7.8, 50 mM NaCl, 5 mM MgCl2, 10% glycerol, 5 uM each protein unless stated, room temperature (10 min preincubation, 15 min with probe); conditions: protein: recombinant; tags: tag-free after self-cleavable intein/chitin purification; label: 32P-dA at 3' end of the S42 strand (Klenow fill-in); blunt after Klenow fill-in of S42 (35-mer)
T2 sequence: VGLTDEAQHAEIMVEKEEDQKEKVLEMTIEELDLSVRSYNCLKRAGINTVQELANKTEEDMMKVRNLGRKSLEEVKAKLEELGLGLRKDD

[2] = target: T3, alphaCTD (C-terminal domain of RNA polymerase alpha subunit);SpxR60E (Bacillus subtilis;Bacillus subtilis, UniProt P20429;O31602 225-314;1-131, |R60E); assay: EMSA; 5 uM each; SpxR60E also prevents the alphaCTD-DNA complex; EMSA: 20 mM Tris-HCl pH 7.8, 50 mM NaCl, 5 mM MgCl2, 10% glycerol, 5 uM each protein unless stated, room temperature (10 min preincubation, 15 min with probe); conditions: protein: recombinant;recombinant; tags: tag-free after self-cleavable intein/chitin purification;intein (pTYB4), cleaved; cloned via NcoI/SmaI; copies: 1;1; label: 32P-dA at 3' end of the S42 strand (Klenow fill-in); blunt after Klenow fill-in of S42 (35-mer)
T3 sequence 1: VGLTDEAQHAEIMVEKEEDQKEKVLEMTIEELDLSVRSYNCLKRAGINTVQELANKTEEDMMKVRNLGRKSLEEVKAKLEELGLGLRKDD
T3 sequence 2: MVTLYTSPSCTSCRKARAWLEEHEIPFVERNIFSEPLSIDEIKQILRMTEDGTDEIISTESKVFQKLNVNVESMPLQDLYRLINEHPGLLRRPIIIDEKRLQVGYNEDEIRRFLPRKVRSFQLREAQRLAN

[3] = target: T2, alphaCTD (C-terminal domain of RNA …); assay: EMSA; EMSA: 20 mM Tris-HCl pH 7.8, 50 mM NaCl, 5 mM MgCl2, 10% glycerol, 5 uM each protein unless stated, room temperature (10 min preincubation, 15 min with probe); conditions: protein: recombinant; tags: tag-free after self-cleavable intein/chitin purification; label: 32P-dA at 3' end of the S44 strand (Klenow fill-in); blunt after Klenow fill-in of S44 (35-mer)
wild-type Spx protein = target: T4, wild-type Spx protein (Bacillus subtilis, UniProt O31602 1-131); assay: native gel or EMSA; supershift of the αCTD-trxB promoter (-56 to -21) complex; 5 µM Spx and 5 µM αCTD preincubated 10 min at room temperature in 20 mM Tris-HCl pH 7.8, 50 mM NaCl, 5 mM MgCl2, 10% glycerol, then 32P-labelled probe 15 min; 6% native polyacrylamide gel in TGE buffer; no DTT; conditions: both partners purified
T4 construct: Spx of Bacillus subtilis; Made with the self-cleavable intein system (New England Biolabs); also called oxidized Spx; source: E. coli ER2566 (pMMN470), purified (chitin column, High S column)
T4 sequence (looked up): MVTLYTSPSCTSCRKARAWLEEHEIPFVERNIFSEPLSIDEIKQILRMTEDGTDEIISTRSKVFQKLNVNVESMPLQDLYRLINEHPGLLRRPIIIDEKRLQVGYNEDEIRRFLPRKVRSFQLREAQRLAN

B1: trxB promoter (-56 to -21) (dsDNA)
DNA 1: TAATCGTGTTGAGCAAAAAAATAGCGTATCACCATG
DNA 2: CATGGTGATACGCTATTTTTTTGCTCAACACGATTA
binding result (Spx wild-type): no binding
binding result [1]: binds
binding result [2]: no binding

B2: trxB (-56 to -21) G-44A G-33A (dsDNA)
DNA 1: TAATCGTGTTGAACAAAAAAATAACGTATCACCATG
DNA 2: CATGGTGATACGTTATTTTTTTGTTCAACACGATTA
binding result [3]: binds

binding result (wild-type Spx protein): binds
B3: αCTD (residues 225–314) (domain or fragment, Bacillus subtilis, UniProt P20429 225-314, looked up)
chain: VGLTDEAQHAEIMVEKEEDQKEKVLEMTIEELDLSVRSYNCLKRAGINTVQELANKTEEDMMKVRNLGRKSLEEVKAKLEELGLGLRKDD
notes: RNA polymerase α subunit (RpoA) of Bacillus subtilis, C-terminal domain, residues 225-314; Made with the self-cleavable intein system (New England Biolabs); also called rpoA-CTD; source: E. coli BL21/pLysS (pSN37), purified (chitin column, High Q column)

— article PMC2801614, “Promoter Recognition by a Complex of Spx and the C-Terminal Domain of the RNA Polymerase α Subunit” (PLoS ONE, 2010)
